Columns and labels:
[1] = target: T1, recombinant human (rh) CHI3L1 (human, UniProt P36222 22-383); test: competitive ELISA
T1 construct: Recombinant protein; also called human CHI3L1; chitinase 3-like-1

[2] = target: T2, recombinant human (rh) CTLA4 (human, UniProt P16410 36-161, limits assumed); test: competitive ELISA
T2 construct: Recombinant protein; also called human CTLA4; CD152
T2 sequence (looked up): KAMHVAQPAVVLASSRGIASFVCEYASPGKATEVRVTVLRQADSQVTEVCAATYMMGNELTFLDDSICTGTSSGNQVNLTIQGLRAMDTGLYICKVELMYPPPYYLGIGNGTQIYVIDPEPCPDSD

T1 sequence (P36222 22-383 limits assumed): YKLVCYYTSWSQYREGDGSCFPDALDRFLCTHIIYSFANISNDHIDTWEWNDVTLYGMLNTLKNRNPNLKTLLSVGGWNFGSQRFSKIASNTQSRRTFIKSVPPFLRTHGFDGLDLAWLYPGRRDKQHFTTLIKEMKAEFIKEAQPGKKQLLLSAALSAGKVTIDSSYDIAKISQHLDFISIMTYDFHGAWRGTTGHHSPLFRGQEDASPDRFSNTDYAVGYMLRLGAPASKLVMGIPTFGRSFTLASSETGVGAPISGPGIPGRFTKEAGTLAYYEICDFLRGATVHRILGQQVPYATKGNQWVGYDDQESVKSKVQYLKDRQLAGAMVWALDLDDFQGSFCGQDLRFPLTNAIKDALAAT

B1: CHI3L1-HC-CTLA4 bispecific antibody (ScFv-CTLA4 attached to the heavy chain of the anti-human CHI3L1 antibody FRG) (bispecific antibody)
chain 1: QVQLQQSGAELMKPGASVKISCRTTGYTFSSYWIEWVKQRPGHGLEWIGEILPGSGSTNCNEKFKGKATFTADTSSNTAYMQLSSLTSEDSAVYYCVRSDDYYDYWGQGTTLTVSSVEGGSGGSGGSGGSGGVDQVQLVQSGAEVVQPGRSLRLSCAASGFTFSSYTMHWVRQAPGKGLEWVTFISYDGNNKYYADSVKGRFTISRDNSKNTLYLQMNSLRSEDTAVYYCARTGWLGPFDYWGQGTLVTVSSGGGGSGGGGSGGGGSGGGGSEIVLTQSPATLSLSPGERATLSCRASQSVGSSYLAWYQQKPGQAPRLLIYGAFSRATGIPARFSGSGSGTDFTLTISSLEPEDFAVYYCQQYGSSPWTFGQGTKVEIK
chain 2: DVLMTQTPLSLPVSLGDQASISCRSSQTIVHSNGNTYLEWYLQKPGQSPKLLIYKVSNRFSGVPDRFSGSGSGTDFTLKISRVEAEDLGVYYCFQGSHVPPTFGGGTKLEIK
Kd [1]: ~1 nM
limit of detection (LOD) [1]: 2 ng/mL
Kd [2]: ~1 nM
limit of detection (LOD) [2]: 2 ng/mL

B2: CHI3L1-LC-CTLA4 bispecific antibody (ScFv-CTLA4 attached to the light chain of the anti-human CHI3L1 antibody FRG) (bispecific antibody)
chain 1: QVQLQQSGAELMKPGASVKISCRTTGYTFSSYWIEWVKQRPGHGLEWIGEILPGSGSTNCNEKFKGKATFTADTSSNTAYMQLSSLTSEDSAVYYCVRSDDYYDYWGQGTTLTVSS
chain 2: DVLMTQTPLSLPVSLGDQASISCRSSQTIVHSNGNTYLEWYLQKPGQSPKLLIYKVSNRFSGVPDRFSGSGSGTDFTLKISRVEAEDLGVYYCFQGSHVPPTFGGGTKLEIKVEGGSGGSGGSGGSGGVDQVQLVQSGAEVVQPGRSLRLSCAASGFTFSSYTMHWVRQAPGKGLEWVTFISYDGNNKYYADSVKGRFTISRDNSKNTLYLQMNSLRSEDTAVYYCARTGWLGPFDYWGQGTLVTVSSGGGGSGGGGSGGGGSGGGGSEIVLTQSPATLSLSPGERATLSCRASQSVGSSYLAWYQQKPGQAPRLLIYGAFSRATGIPARFSGSGSGTDFTLTISSLEPEDFAVYYCQQYGSSPWTFGQGTKVEIK
Kd [1]: ~1 nM
limit of detection (LOD) [1]: 2 ng/mL
Kd [2]: ~1 nM
limit of detection (LOD) [2]: 2 ng/mL

B3: anti-human CHI3L1 antibody (called "CHI3L1" or "FRG") (antibody, V domains shown)
VH: B2 chain 1
VL: B1 chain 2
Kd [1]: ~1 nM
limit of detection (LOD) [1]: 2 ng/mL

From patent US20230046834A1 (BROWN UNIVERSITY, published 2023)
